Source: the DeepSol protein solubility set

Test: soluble on expression in E. coli; label from the status in PepcDB or PDB records

| Sequence | soluble on expression in E. coli |
| --- | --- |
| ASGSSFASTRKLLNRHSLHTVCRSAMCPNLHECWSKGTATFLLLGNVCTRSCRFCAVGTECRPAMPDPEEPSKIAEAVKTMKLRHAVLTSVNRDDLADGGATHWVETIRAIREVNPGVSLECLIPDFSGNEQSLDLVMQELPEVLNHNIETVPSRYAAVRPQALYERSLAVIERAKRQFRLATKSGMMVGMGETEEELEASLHDLRGHGCDMVTIGQYLQPTAAHLPVSRYVTPEEFERYREIALDAGFRHVQSGPFVRSSYHAEAFEPVEK | not soluble |
| MGSDKIHHHHHHMRLRELELFLDLLATKSLTQSAERLGMSQPNASHLLSKLEEKGGSKLFDRSGKRLLPLSSALFLEPRAKEIVRLWREAQEELLDQSSLCGELRIAATHTIGEYLLPEILFEFRQTHPKVHLQARIHNTAECLEALLGGEVEQAFIEGETEDNQGVMKRFLRRDELAVVTSDEGLAARARYIDELFDRPWILREKGSGMRDAFLREVVDVKESFPLFLELDRSEAIKRLIQSHGALGCLSLLSVQREIKEGRLFRVEIIGREFWRHFYEVRREGSLGRLAKVFGEFVSVRLSESD | not soluble |
| MGSDKIHHHHHHMMRNIAICSNEVENLILGQDSVKTIDMNGILVRCGLLRTENIYFDRNAVSNRFKVLVKKKAFSCNYRDKSIIFRITKQAPENTFYVVGSDFVGEVIATGSEVTELKVGDRVIANNAYPESDALEAFPGIPSNHASKEYQVFHQAKLIKIPLEMSDEIAAAFSIGGQTSYSIVRKFNPTKGSNILVTAAKSNTSLFVINALKKYDVNIYATSTSRLFEEELRAMGVKKVILVESKPNSLLENQSIQNIVAETGGFDCVFDPFFDLYLGQSVELMKIGAKYITCGLYDQYFELINQSFTPFSLNTNHIMGSVMTKNLQIIGNCLGLTEDLKNAIQDYALGHLNVVIDSVFTGKDIEGFFERTYNAKDRFGKVVYKYE | not soluble |
| MTRSDRPYRGVEAAERLATRRRQSLSAGLDLLGSDQHDIAELTIRTICRRAGLSVRYFYESFTDKDEFVGRVFDWVVAELVATTQAAVTAVPAREQTRAGMANIVRTITADARVGRLLFSTQLANAVITRKRAESSALFAMLSGQHAVDTLHAPANDHVKAVAHFAVGGVGQTISAWLAGDVRLDPDQLVDQLAALLDELTDPNLSRPRVAATAAKSGANDPQPPEVAGQPPSSARPARRS | soluble |
| SASDFEERVVTIPLRDARAEPNHKRADKAMILIREHLAKHFSVDEDAVRLDPSINEAAWARGRANTPSKIRVRAARFEEEGEAIVEAETAE | soluble |
| MEQLQVGQVTLTWLNGGVTHLDGGAMFGVVPKPLWSKKYPPNDQNQIELRTDPILVEAGGKRLLIESGIGNGKLTDKQKRNFGVTEESSLDESLAALGLTRGDIDIVIMTHLHFDHACGLTVWEDGRLVPAFPRAAIITSDVEWEEMRAPNIRSRNTYWKENWEPIAEQVIPFTKETEVVSGIRLIHTGGHSAGHAIVLIESDGEMAIHLGDLLGTHAHQNVLWVMAYDDYPMDSIFAKQRWLPYGIERNAWFTFYHDAYYRAVKWREDGTIAEQVKRNRPTLLEHHHHHH | soluble |
| MSLGAIVEVITIKNYSLKSENYEAEIDIPKIRGLKDKNLEQRLNSSFMEDGKRLYHQFQERMEKIQSSKNKGYKSLSLSYSVKNNSKKFLSIEMTKNEIEASSYVSKVHYTIDKKRQIVLTLPMLFKDDKYIKVISDNIKEQMREQMKKDSTKSYFIDQKKDLPVEDFKTINKYQDFYFNKNEDLVICFDEYEVAPGYMGAVEFVIPYKVIKDEGHHHHHH | soluble |
| MGSDKIHHHHHHMTKKRIFVTGASGCIGHYISETLIQETDYELYLLVRNPSKLQVDTQIRPGITVLQGDMQNISQFADLLSTIDIAVLTATAWGGEQTFDINVSKTIELLNLLDPDRCQQVIYFSTASVLDSHNQPLKEAGEIGTDYIRSKYECLHKISELGIASKITTVFPTLVLGGDSKKPYSHLTSGIPEVTKYVNLIRFLQADGSFHFIHGKDIASVVKYLIVNPPQENTSRRLVLGQKRLTANQAIEEVCTYLGKKISFRIPLSLSLANLIIAVFRIQMADWDRFCMNYRHFTYDTVINPDSFGLPNYCATMSDVLKISGVDSSHQ | not soluble |
| MENLYFQGLEHHHHHHENSSPYTSEHFHYTVTDIKDLTKLGAIYDKTKKYWVYQGKPVMPDQFTFELLDFLHQLTHLSFSKMKALLERSHSPYYMLNRDRTLKNITETCKACAQVNASKS | soluble |
| MDDSTLRDRLEQLGLSEKEVDTYLSILSSGEATASEIADDTGVSKRYVYSISESLEDRGFVEVNDHVVPTTIRARPPEEVIDALTDRLEEMSGALDSRYSASAREPQQFDVIKSRVTVIKRLTEYIRNAEREIMLSVPQQYLPEISEELGAAVDRGVLVMLVVSSADNLRSDDASGLASVVRSWDQPMPIMLTVDAQFGLVSPAEMVTRTNSDQRAIAFVQQQLVPVLSGSFLGNYWLMATEVAVTDPAPLPATYHDFRHAVLQATLHLRADHDIHVSADVRAVQADDDTTTIEGTVVETKQGLVEPETNSYPIEHTLVVDIGDRTVSLGGSGSFLEDYETDAVTLSLAE | not soluble |
| MKSTDNSKPVPFFRGKLKFFQPKEHKISVDLVLFLSKIKPPKRNYRIIDLGAGFGFLSITLAKKYGVKVVAFEYDERMVKLLRKNVKLNGVEHLVEVVEGDIKEIEKHLSRGSFNLVVSNPPFYPINYSPNPEPYHFEVYATLKDFVRASSYLLKDGGELYLLSPCFRLYELTEYLSNFNLPLRKLSLIYPTPLKRARLAITVSVKNVKGQLECDKPLIINKENGEYTEEVKQLLENFL | soluble |
| DQALSGQLRIGASDTIGNQVAPYLLSEFRQQTNHRSQSLFISNSAQICDMLTDYELDIALIEGKTLHPELQSTQFSEDEMCVICAPDYPAAHEGPVNLTELENSEWILREAGSGSREFFMRVVAPRLEHWHEAFQLNTTEAL | not soluble |
| MGSDKIHHHHHHMHFNAPSYPKQWFDTKSAGTPVVILTGMGCSYEEWYEVIQSLRPAHRILSFHRHSWKEGDGIHRTGHAIQQLQTLLSGSNVDEPILLIGHSYGGLIAQEFTKLFPERIKGLILVDSTSVDLHELDALDTPVLDAVSSDAAWQALCRDYAIKTKEQLKQLLQPVLTGAQKRLPQAVQDALVDFQTEPDLYAMMDSEVEHWKTDAARIRTGPFPDVPLIVIGRDPELSIQDGINDGLPEDELRQVEETWHRLVLRQATLTKQADFITATGAGHAIHLDRPDLVISAVTKLDVT | not soluble |
| MRPISNLNTSAATYIPPQQLPSSCLETLTLLVQMNNYIKRDADYSTGMAVAPLVPEEVHLLAAAMTTELHRHQFQPVVSANDLQLPEPFTFDVAGFTITFTKTQEHDNTGNLMKIAVSKSGVCTSTNITLELFHSIVTTLMSRSQYGTFDLWSVRPILTDESQNRVHEAARYSPAQQYGREETHFTNNGMREFGNMSPLAWRNDVELQQSCNTSNIPPNAANDDINNTRQTIEDQPEADEPQQYVKLTVDDMRKWAAMDQQARNALQGVSGWCTRNHFNIKNARNYLTDHGLNYAGQVKVNRPHEYAKFTLEHIRQWAALNKHVRKPVGYLEKWCKERNLAPTTARNYLKNDGLTALGELKLTGPQKWVTFTFGDIVQWANMTQEERNSAGGAEKWSKKRGFQWSTARSYLKSSGVTKQGARKLAWLKNSGNMSNPFYLAQPTSRRT | not soluble |
| MSELQNPKPSSLSRDAFIATYADIYEHSPWVAEQAFNQDAGPELDQLDTLHARLSDILLNATHAQQLALINAHPDLAGKAAVKGELTQASTDEQAGAGIHLCTPDEFQRFTELNGAYKARFGFPFIMAVKGSDRHKILAAFEQRIHHSPEAEFACALAEINKIALFRLQALHASQAAAALEHHHHHH | soluble |
| MSLRYTNSHLEDWIENLYKKIDITEPEQINFERIAEALDIRLSFKPVTSFALKHSGIYNICLDSRKSRTEQWYDFAHEFCHIYRHEGDKKTMPATWTDYLDWQSNYFTYHFCIPTCMLRNINLPYIQSHAIENVAWLFKVSPSFAKKRLSIYYRKLTQHLFSQTVTGNLCPPFLEGHHHHHH | not soluble |
| MHSSILLLLSFASITTACPGLLNIFGGAGGGGCGGCGGGCGGGCGCAPPPPPCCGGGCGGCGRKKRSLPEKPTFVGIADSGDDVMCNTPALKKIILENIQTTASDSSKAINTVLESRQIQRFVVVCSEKPFVFTFRADAAYCGATKNGHNCHAFAM | not soluble |
| MNNHFGKGLMAGLHAPYAYSAHHAVNFCSEYKRGFVLGFTHRMFEKTGDRQLSAWEAGILTRRYGLDKEMVMDFFKENHSGMAVRFFMAGYRLEG | not soluble |
| MSLKPTDLNLIPIFIAIYEERNLSRAAARLDITQPAVSKALARLRDIYDEPLFHRSSSGVEPTSFAVDIYPAMVAAIKNFTSTLSASVEFDPKVSNRIFSIACVSILSYELLPQLMKQIHELAPNIALEVHPLFTEDYESDLRLQRYDLIIDLAPRGRTVLKVEPVITERLMVVCNKDHPRIAESISQEQFFEEEHVAVSQWQSRKSMLSAEDIVDLDKRKIMYRAAGALEMLPVICGSEYIGLMPESMIKLFSNTYHVKALPFPFDVTTYDLCTIWHPSRTNESAHQWLRAQIKHAGKVIKEGHHHHHH | soluble |
| MSLKVLICDDDKIVRDDIANIAKESGYVDYVKKVKDGIEAIEFIKNEKIDLLIIDIDMPYKNGIDSAEEILSIDKDIHIVFVTGFADYSLESFKVHPIDFVVKPFKKEKILDSINIAIDHINSHKIANNNFIEDTLFVYKIRKQIHMINFDDIVMFEKNSRAINLHTKDEDIIKFYENFDDLKKRLPPNFFMTHRQYIVNLRFIHKVIPINKSSLEIRFINFQENAILNKSLEKDFLYRFYREGHHHHHH | not soluble |
| SIAILVIMHGESTASSMVNVANTLLDCNHAVAINMGLEDRVQDILVQAVEIANKIDKGKGILILTDMGSILTFAKVIRDATGKEVKAIDMVSTPIVIEATRKALTPEMTLEKLYFNIIESIKKHYGDMEVTYAEKDNGGRY | not soluble |
| MGSDKIHHHHHHMDLSSNRLAGKSILITRPLHQAGGLATWVRELGGEPWLFPVLEISDSENKQPLLDLIARLDEFDLAVFVSPNAVEKVIPLVQVSHSWPRHVLVATVGKGSARVLERYGITNVIVPEEGSDSEALLRMPQFQVMQGRHVVIFRGNDGRRLLGDTLRERGASVEYIECYRRHKPEADPLPLLKHWRDDGIQAVIISSSEGLDNLFDMIGETGQQLLKATPVFTAHERIERKARELGIRKIYRTLLGDEGTVQGLLEYFEKM | not soluble |
| MNRAEKREFVTWLNEAFRKSGSVIVAHYSGLTVSQMNDLRSKMSEAGGAIKVAKNRLAKIALQGTESESIVDLFSGQTLIAYSEDPITAPKVAVDFAKTNDKFVILGGSMGATSLSVDAVKSLASLPSLNELRAKLVGMISTPATRIAQVVNAPAGQVVRVIGAYAQEGKAA | not soluble |
| MGSDKIHHHHHHMKLVEITREEIRGDLVGLVPVGSIEQHGPHLPMGTDGIISEYIASKAEEKLKDITLLFPTIYYGVSLEHKGFPFVSLSFQTAISFFTDLLESVFNDLGLRRIIIVNGHGGNSYFLPLVQREFNMKHSDAKVIVFNTFGEEEKILFNVNDLHAGTIETSKIWAIGKSLVRVNKIDEIKNYEVRDGVFIYYSSREANQFGVLNDGKPIRVNEEYGKKILRDLVDKLIWTILNFKV | not soluble |
| MTSFTIPGLSDKKASDVADLLQKQLSTYNDLHLTLKHVHWNVVGPNFIGVHEMIDPQVELVRGYADEVAERIATLGKSPKGTPGAIIKDRTWDDYSVERDTVQAHLAALDLVYNGVIEDTRKSIEKLEDLDLVSQDLLIAHAGELEKFQWFVRAHLESAGGQLTHEGQSTEKGAADKARRKSA | soluble |
